Changes are numbered by the printed parent chain. One block for each binder: values may come before it.
Experiments:
Assay in all cases: BLI
cp1339 = target: cp1339
cp1340 = target: cp1340
cp1353 = target: cp1353
cp1338 = target: cp1338
cp1286 = target: cp1286
cp1292 = target: cp1292
cp1284 = target: cp1284
cp1285 = target: cp1285
cp1342 = target: cp1342
cp1352 = target: cp1352
LY6G6D = target: T1, LY6G6D
T1 chain: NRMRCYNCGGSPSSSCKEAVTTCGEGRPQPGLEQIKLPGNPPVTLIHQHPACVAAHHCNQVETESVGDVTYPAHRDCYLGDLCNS

- Kd (cp1339): 0.824 nM
- Kd (cp1340): 2.52 nM
- Kd (cp1353): 21.8 nM
- Kd (cp1338): 0.695 nM
- Kd (cp1286): 1.12 nM
- Kd (cp1292): 6.97 nM
- Kd (cp1284): 40.7 nM
- Kd (cp1285): 1.78 nM
- Kd (cp1342): 1.73 nM
- Kd (cp1352): 1.54 nM
B1: cp203 (Fc fusion)
chain: T1 chain
modifications: biotinylated for BLI capture (site not stated)

- Kd (LY6G6D): 0.255 nM
B2: CB21-499-177 (antibody, V domains shown)
VH: EVQLVESGGGVVQPGRSLRLSCAASGFTFSSYGMHWVRQAPGKGLEWVAVIWYDASNKEYAPSVKGRFTISRDNSKNTLYLQMNSLRAEDTAIYYCARPGEGDYWGQGTLVTVSS
VL: DIQMTQSPSSLSASVGDRVTITCRASQGVRNDFGWFQQKPGKAPKRLIYGASSLQSGVPSRFSGSGSGTEFTLTISSLQPEDFATYYCLQQNSYPWTFGQGTKLEIK

- Kd (LY6G6D): 0.337 nM
B3: CB21-499 (antibody, V domains shown)
VH: B2 VH with A55G, E59D, P62D
VL: B2 VL

Reference: patent publication US20250361298A1 (published 2025)
